Measurements: US20110142868A1 (CHIRALIX B V, published 2011)
Each block holds one binder with its values, some of them ahead of it. Numbered stars: 1 amine (or outer) side, 2 acyl side, 3 side chain; on linkers, the order of the positions; unused ones are H or OH. Square brackets hold non-standard residues; d marks the D form. * marks the point of attachment. Orn(CA) = ornithine chloroamidine, O(CA), N=C(CCl)NCCC[C@H](N[*:1])C(=O)[*:2]; Orn(fluoroacetimidoyl) = N=C(CF)NCCC[C@H](N)C(=O)O; 2Naphthylsulfonyl = O=S(=O)(c1ccc2ccccc2c1)*; AEEA = NCCOCCOCC(=O)O

What was measured:
Test in all cases: cell-based or functional assay
[1] = biological target: T1, recombinant human PAD4 (human, UniProt Q9UM07 1-663)
T1 sequence (Q9UM07 whole entry): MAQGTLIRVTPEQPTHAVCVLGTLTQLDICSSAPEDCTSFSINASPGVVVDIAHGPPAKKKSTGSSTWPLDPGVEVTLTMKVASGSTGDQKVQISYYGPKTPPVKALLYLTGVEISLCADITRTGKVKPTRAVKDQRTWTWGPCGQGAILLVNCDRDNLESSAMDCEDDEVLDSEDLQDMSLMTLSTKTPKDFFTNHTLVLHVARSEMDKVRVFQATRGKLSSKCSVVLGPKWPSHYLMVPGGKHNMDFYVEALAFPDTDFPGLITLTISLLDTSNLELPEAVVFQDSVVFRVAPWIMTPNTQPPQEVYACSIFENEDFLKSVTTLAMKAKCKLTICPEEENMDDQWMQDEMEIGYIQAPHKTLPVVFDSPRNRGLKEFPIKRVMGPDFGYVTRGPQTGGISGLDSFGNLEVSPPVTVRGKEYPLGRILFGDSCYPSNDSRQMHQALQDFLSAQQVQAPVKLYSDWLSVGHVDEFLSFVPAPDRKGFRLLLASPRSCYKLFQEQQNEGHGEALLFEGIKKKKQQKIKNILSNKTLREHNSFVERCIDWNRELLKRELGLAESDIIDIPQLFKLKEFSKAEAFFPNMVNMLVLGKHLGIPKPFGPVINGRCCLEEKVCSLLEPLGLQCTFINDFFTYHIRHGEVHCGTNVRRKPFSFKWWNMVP

[2] = biological target: T2, recombinant human PAD2 (human, UniProt Q9Y2J8 1-665)
T2 sequence (Q9Y2J8 whole entry): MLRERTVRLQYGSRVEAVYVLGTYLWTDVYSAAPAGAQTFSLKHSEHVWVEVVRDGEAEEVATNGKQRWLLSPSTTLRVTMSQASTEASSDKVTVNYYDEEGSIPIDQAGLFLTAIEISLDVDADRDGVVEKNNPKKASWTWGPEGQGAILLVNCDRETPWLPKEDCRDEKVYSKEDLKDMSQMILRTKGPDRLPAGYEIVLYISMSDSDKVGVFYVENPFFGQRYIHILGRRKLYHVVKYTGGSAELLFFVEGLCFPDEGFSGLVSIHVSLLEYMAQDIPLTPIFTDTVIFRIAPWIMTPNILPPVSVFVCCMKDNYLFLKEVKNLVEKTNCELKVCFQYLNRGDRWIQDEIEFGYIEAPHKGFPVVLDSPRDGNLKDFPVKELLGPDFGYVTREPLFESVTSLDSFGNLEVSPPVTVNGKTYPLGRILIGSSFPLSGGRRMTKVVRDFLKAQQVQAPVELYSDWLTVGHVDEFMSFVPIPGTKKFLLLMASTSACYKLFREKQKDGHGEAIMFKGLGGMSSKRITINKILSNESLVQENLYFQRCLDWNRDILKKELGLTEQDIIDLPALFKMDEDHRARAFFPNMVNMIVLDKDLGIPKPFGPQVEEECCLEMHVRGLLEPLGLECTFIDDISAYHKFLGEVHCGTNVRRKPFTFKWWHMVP

[3] = biological target: T2, recombinant human PAD2; remark: listed apart in the source
[4] = biological target: T1, recombinant human PAD4; remark: listed apart in the source
[5] = biological target: T1, recombinant human PAD4; remark: listed apart in the source
[6] = biological target: T2, recombinant human PAD2; remark: listed apart in the source

B1: 0741-05CA (peptide)
peptide: Ac-DSHKFD[Orn(CA)]DFIYSD-NH2
SMILES: CC[C@H](C)[C@H](NC(=O)[C@H](Cc1ccccc1)NC(=O)[C@H](CC(=O)O)NC(=O)[C@H](CCCNC(=N)CCl)NC(=O)[C@H](CC(=O)O)NC(=O)[C@H](Cc1ccccc1)NC(=O)[C@H](CCCCN)NC(=O)[C@H](Cc1c[nH]cn1)NC(=O)[C@H](CO)NC(=O)[C@H](CC(=O)O)NC(C)=O)C(=O)N[C@@H](Cc1ccc(O)cc1)C(=O)N[C@@H](CO)C(=O)N[C@@H](CC(=O)O)C(N)=O
conversion of 0708-30 by PAD4, 10 µM inhibitor [1]: 74% | conversion of 0708-30 by PAD4, 50 µM inhibitor [1]: 34% | conversion of 0708-30 by PAD4, 100 µM inhibitor [1]: 25% | conversion of 0708-30 by PAD2, 10 µM inhibitor [2]: 62% | conversion of 0708-30 by PAD2, 50 µM inhibitor [2]: 44% | conversion of 0708-30 by PAD2, 100 µM inhibitor [2]: 31%

B3: 0837-13FA (peptide)
peptide: Ac-KFD[Orn(fluoroacetimidoyl)]DFI[AEEA]-NH2
SMILES: CC[C@H](C)[C@H](NC(=O)[C@H](Cc1ccccc1)NC(=O)[C@H](CC(=O)O)NC(=O)[C@H](CCCNC(=N)CF)NC(=O)[C@H](CC(=O)O)NC(=O)[C@H](Cc1ccccc1)NC(=O)[C@H](CCCCN)NC(C)=O)C(=O)NCCOCCOCC(N)=O
Inhibition of PAD2: value at 10 µM inhibitor (0 µM: 74) [3]: 43% | Inhibition of PAD2: value at 20 µM inhibitor (0 µM: 74) [3]: 30% | Inhibition of PAD2: value at 40 µM inhibitor (0 µM: 74) [3]: 20% | Inhibition of PAD2: value at 80 µM inhibitor (0 µM: 74) [3]: 11% | Inhibition of PAD4: value at 10 µM inhibitor (0 µM: 71) [4]: 48% | Inhibition of PAD4: value at 20 µM inhibitor (0 µM: 71) [4]: 33% | Inhibition of PAD4: value at 40 µM inhibitor (0 µM: 71) [4]: 23% | Inhibition of PAD4: value at 80 µM inhibitor (0 µM: 71) [4]: 16%

B5: 0741-03FA (peptide)
peptide: Ac-FFDSHKFD[Orn(fluoroacetimidoyl)]DFIYSD-NH2
SMILES: CC[C@H](C)[C@H](NC(=O)[C@H](Cc1ccccc1)NC(=O)[C@H](CC(=O)O)NC(=O)[C@H](CCCNC(=N)CF)NC(=O)[C@H](CC(=O)O)NC(=O)[C@H](Cc1ccccc1)NC(=O)[C@H](CCCCN)NC(=O)[C@H](Cc1c[nH]cn1)NC(=O)[C@H](CO)NC(=O)[C@H](CC(=O)O)NC(=O)[C@H](Cc1ccccc1)NC(=O)[C@H](Cc1ccccc1)NC(C)=O)C(=O)N[C@@H](Cc1ccc(O)cc1)C(=O)N[C@@H](CO)C(=O)N[C@@H](CC(=O)O)C(N)=O
conversion of 0708-30 by PAD4, 10 µM inhibitor [1]: 45% | conversion of 0708-30 by PAD4, 50 µM inhibitor [1]: 12% | conversion of 0708-30 by PAD4, 100 µM inhibitor [1]: 9% | conversion of 0708-30 by PAD2, 10 µM inhibitor [2]: 39% | conversion of 0708-30 by PAD2, 50 µM inhibitor [2]: 13% | conversion of 0708-30 by PAD2, 100 µM inhibitor [2]: 6%

B6: 0741-02FA (peptide)
peptide: Ac-FFDSHKWH[Orn(fluoroacetimidoyl)]DFFYSD-NH2
SMILES: CC(=O)N[C@@H](Cc1ccccc1)C(=O)N[C@@H](Cc1ccccc1)C(=O)N[C@@H](CC(=O)O)C(=O)N[C@@H](CO)C(=O)N[C@@H](Cc1c[nH]cn1)C(=O)N[C@@H](CCCCN)C(=O)N[C@@H](Cc1c[nH]c2ccccc12)C(=O)N[C@@H](Cc1c[nH]cn1)C(=O)N[C@@H](CCCNC(=N)CF)C(=O)N[C@@H](CC(=O)O)C(=O)N[C@@H](Cc1ccccc1)C(=O)N[C@@H](Cc1ccccc1)C(=O)N[C@@H](Cc1ccc(O)cc1)C(=O)N[C@@H](CO)C(=O)N[C@@H](CC(=O)O)C(N)=O
conversion of 0708-30 by PAD4, 10 µM inhibitor [1]: 50% | conversion of 0708-30 by PAD4, 50 µM inhibitor [1]: 20% | conversion of 0708-30 by PAD4, 100 µM inhibitor [1]: 16% | conversion of 0708-30 by PAD2, 10 µM inhibitor [2]: 52% | conversion of 0708-30 by PAD2, 50 µM inhibitor [2]: 17% | conversion of 0708-30 by PAD2, 100 µM inhibitor [2]: 7%

B9: 0748-25FA (peptide)
peptide: Ac-KHD[Orn(fluoroacetimidoyl)]DFL-NH2
SMILES: CC(=O)N[C@@H](CCCCN)C(=O)N[C@@H](Cc1c[nH]cn1)C(=O)N[C@@H](CC(=O)O)C(=O)N[C@@H](CCCNC(=N)CF)C(=O)N[C@@H](CC(=O)O)C(=O)N[C@@H](Cc1ccccc1)C(=O)N[C@@H](CC(C)C)C(N)=O
conversion of 0708-30 by PAD4, 10 µM inhibitor (0 µM: 81) [5]: 45% | conversion of 0708-30 by PAD4, 50 µM inhibitor (0 µM: 81) [5]: 18% | conversion of 0708-30 by PAD4, 100 µM inhibitor (0 µM: 81) [5]: 12% | conversion of 0708-30 by PAD2, 10 µM inhibitor (0 µM: 68) [6]: 47% | conversion of 0708-30 by PAD2, 50 µM inhibitor (0 µM: 68) [6]: 20% | conversion of 0708-30 by PAD2, 100 µM inhibitor (0 µM: 68) [6]: 11%

B10: 0741-06CA (peptide)
peptide: Ac-DSKKHD[Orn(CA)]DFLYSD-NH2
SMILES: CC(=O)N[C@@H](CC(=O)O)C(=O)N[C@@H](CO)C(=O)N[C@@H](CCCCN)C(=O)N[C@@H](CCCCN)C(=O)N[C@@H](Cc1c[nH]cn1)C(=O)N[C@@H](CC(=O)O)C(=O)N[C@@H](CCCNC(=N)CCl)C(=O)N[C@@H](CC(=O)O)C(=O)N[C@@H](Cc1ccccc1)C(=O)N[C@@H](CC(C)C)C(=O)N[C@@H](Cc1ccc(O)cc1)C(=O)N[C@@H](CO)C(=O)N[C@@H](CC(=O)O)C(N)=O
conversion of 0708-30 by PAD4, 10 µM inhibitor [1]: 74% | conversion of 0708-30 by PAD4, 50 µM inhibitor [1]: 64% | conversion of 0708-30 by PAD4, 100 µM inhibitor [1]: 50% | conversion of 0708-30 by PAD2, 10 µM inhibitor [2]: 63% | conversion of 0708-30 by PAD2, 50 µM inhibitor [2]: 45% | conversion of 0708-30 by PAD2, 100 µM inhibitor [2]: 48%

More lines, now with the values ahead:

Inhibition of PAD2: value at 10 µM inhibitor (0 µM: 74) [3]: 24% | Inhibition of PAD2: value at 20 µM inhibitor (0 µM: 74) [3]: 14% | Inhibition of PAD2: value at 40 µM inhibitor (0 µM: 74) [3]: 7% | Inhibition of PAD2: value at 80 µM inhibitor (0 µM: 74) [3]: 4% | Inhibition of PAD4: value at 10 µM inhibitor (0 µM: 71) [4]: 35% | Inhibition of PAD4: value at 20 µM inhibitor (0 µM: 71) [4]: 20% | Inhibition of PAD4: value at 40 µM inhibitor (0 µM: 71) [4]: 12% | Inhibition of PAD4: value at 80 µM inhibitor (0 µM: 71) [4]: 7%
B2: 0837-27FA (peptide)
peptide: 2Naphthylsulfonyl-KFD[Orn(fluoroacetimidoyl)]DFI[AEEA]-NH2
SMILES: CC[C@H](C)[C@H](NC(=O)[C@H](Cc1ccccc1)NC(=O)[C@H](CC(=O)O)NC(=O)[C@H](CCCNC(=N)CF)NC(=O)[C@H](CC(=O)O)NC(=O)[C@H](Cc1ccccc1)NC(=O)[C@H](CCCCN)NS(=O)(=O)c1ccc2ccccc2c1)C(=O)NCCOCCOCC(N)=O

Inhibition of PAD2: value at 10 µM inhibitor (0 µM: 74) [3]: 16% | Inhibition of PAD2: value at 20 µM inhibitor (0 µM: 74) [3]: 9% | Inhibition of PAD2: value at 40 µM inhibitor (0 µM: 74) [3]: 5% | Inhibition of PAD2: value at 80 µM inhibitor (0 µM: 74) [3]: 2% | Inhibition of PAD4: value at 10 µM inhibitor (0 µM: 71) [4]: 33% | Inhibition of PAD4: value at 20 µM inhibitor (0 µM: 71) [4]: 16% | Inhibition of PAD4: value at 40 µM inhibitor (0 µM: 71) [4]: 10% | Inhibition of PAD4: value at 80 µM inhibitor (0 µM: 71) [4]: 5%
Binder: 2Naphthylsulfonyl-KFD[Orn(fluoroacetimidoyl)]DFI-NH2 [0837-29FA]

Inhibition of PAD2: value at 10 µM inhibitor (0 µM: 76) [3]: 17% | Inhibition of PAD2: value at 20 µM inhibitor (0 µM: 76) [3]: 8% | Inhibition of PAD2: value at 40 µM inhibitor (0 µM: 76) [3]: 4% | Inhibition of PAD2: value at 80 µM inhibitor (0 µM: 76) [3]: 2% | Inhibition of PAD4: value at 10 µM inhibitor (0 µM: 67) [4]: 37% | Inhibition of PAD4: value at 20 µM inhibitor (0 µM: 67) [4]: 23% | Inhibition of PAD4: value at 40 µM inhibitor (0 µM: 67) [4]: 17% | Inhibition of PAD4: value at 80 µM inhibitor (0 µM: 67) [4]: 9%
B4: 0837-28FA (peptide)
peptide: 2Naphthylsulfonyl-KWH[Orn(fluoroacetimidoyl)]DFF[AEEA]-NH2
SMILES: N=C(CF)NCCC[C@H](NC(=O)[C@H](Cc1c[nH]cn1)NC(=O)[C@H](Cc1c[nH]c2ccccc12)NC(=O)[C@H](CCCCN)NS(=O)(=O)c1ccc2ccccc2c1)C(=O)N[C@@H](CC(=O)O)C(=O)N[C@@H](Cc1ccccc1)C(=O)N[C@@H](Cc1ccccc1)C(=O)NCCOCCOCC(N)=O

Inhibition of PAD2: value at 10 µM inhibitor (0 µM: 76) [3]: 9% | Inhibition of PAD2: value at 20 µM inhibitor (0 µM: 76) [3]: 3% | Inhibition of PAD2: value at 40 µM inhibitor (0 µM: 76) [3]: 2% | Inhibition of PAD2: value at 80 µM inhibitor (0 µM: 76) [3]: 1% | Inhibition of PAD4: value at 10 µM inhibitor (0 µM: 67) [4]: 37% | Inhibition of PAD4: value at 20 µM inhibitor (0 µM: 67) [4]: 24% | Inhibition of PAD4: value at 40 µM inhibitor (0 µM: 67) [4]: 13% | Inhibition of PAD4: value at 80 µM inhibitor (0 µM: 67) [4]: 7%
B7: 0837-30FA (peptide)
peptide: 2Naphthylsulfonyl-KWH[Orn(fluoroacetimidoyl)]DFF-NH2
SMILES: N=C(CF)NCCC[C@H](NC(=O)[C@H](Cc1c[nH]cn1)NC(=O)[C@H](Cc1c[nH]c2ccccc12)NC(=O)[C@H](CCCCN)NS(=O)(=O)c1ccc2ccccc2c1)C(=O)N[C@@H](CC(=O)O)C(=O)N[C@@H](Cc1ccccc1)C(=O)N[C@@H](Cc1ccccc1)C(N)=O

Inhibition of PAD2: value at 10 µM inhibitor (0 µM: 76) [3]: 38% | Inhibition of PAD2: value at 20 µM inhibitor (0 µM: 76) [3]: 24% | Inhibition of PAD2: value at 40 µM inhibitor (0 µM: 76) [3]: 14% | Inhibition of PAD2: value at 80 µM inhibitor (0 µM: 76) [3]: 8% | Inhibition of PAD4: value at 10 µM inhibitor (0 µM: 67) [4]: 54% | Inhibition of PAD4: value at 20 µM inhibitor (0 µM: 67) [4]: 39% | Inhibition of PAD4: value at 40 µM inhibitor (0 µM: 67) [4]: 29% | Inhibition of PAD4: value at 80 µM inhibitor (0 µM: 67) [4]: 21%
B8: 0837-14FA (peptide)
peptide: Ac-KWH[Orn(fluoroacetimidoyl)]DFF[AEEA]-NH2
SMILES: CC(=O)N[C@@H](CCCCN)C(=O)N[C@@H](Cc1c[nH]c2ccccc12)C(=O)N[C@@H](Cc1c[nH]cn1)C(=O)N[C@@H](CCCNC(=N)CF)C(=O)N[C@@H](CC(=O)O)C(=O)N[C@@H](Cc1ccccc1)C(=O)N[C@@H](Cc1ccccc1)C(=O)NCCOCCOCC(N)=O
